Read-outs that look alike come from different tables or passages of the source.
Legend:
[1] = molecular target: U1 snRNP ΔU1-C, biotinylated on SmF and Cy5-labelled on the U1 snRNA (CoSMoS form) (human) (UniProt P08621); assay: colocalization single molecule spectroscopy
[2] = molecular target: U1 snRNP ΔU1-C, biotinylated on SmF and Cy5-labelled on the U1 snRNA (CoSMoS form) (human) (UniProt P08621); assay: colocalization single molecule spectroscopy; remark: listed apart in the source
[3] = molecular target: minimal U1 snRNP with U1-C (SPR) (human, UniProt P08621;P62316;P62318;P14678;P62306;P62304;P62308;P09234 …, internal_change); assay: SPR
[4] = molecular target: T1, minimal U1 snRNP without U1-C (CoSMoS);U1-C zinc finger (U1-C_61) (human;human, UniProt P08621;P62316;P62318;P14678;P62306;P62304;P62308;P09234 …, internal_change|); assay: single-molecule CoSMoS
[5] = molecular target: T1, minimal U1 snRNP without U1-C …; assay: single-molecule CoSMoS; remark: listed apart in the source

Sequence of U1-C_61 (zinc finger region of U1-C) (P09234 1-61): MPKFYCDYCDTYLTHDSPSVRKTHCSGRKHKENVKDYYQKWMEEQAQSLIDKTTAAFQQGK

## U1-C_61 (zinc finger region of U1-C) (from UniProt P09234 1-61) (domain or fragment)
[1]
  EC50: 1.3 nM
[2]
  EC50: 1.8 nM

## CAGAGUAAGUAU (ssRNA) [11bp-1A]
[3]
  Kd: 2.7 nM

## CAGGUAAGUAU (ssRNA) [11bp]
[3]
  Kd: 0.203 nM

## ACACAGAGUAAGUUAACA (ssRNA) [9bp-1A]
[4]
  Kd: 1.2 nM

## ACACAGGUAAGUUAACA (ssRNA) [9bp]
[5]
  Kd: ~0.12 nM

— publication PMC11467380
